Results as given in patent US20140212440A1.
Where two headings read alike, the source gives them in different places. Where no end group is shown, it is not given here. [ ]: non-standard residue; d: D form. The star is where a group is joined. Acetyl(2-(4-imidazolyl)) = O=C(Cc1c[nH]cn1)*

Tests used:
Assay in all cases: cell-based or functional assay
[1] = biological target: human glucagon receptor (human) (UniProt P47871)
[2] = biological target: human GLP-1 receptor (human) (UniProt P43220)
[3] = biological target: human glucagon receptor (human) (UniProt P47871); remark: listed apart in the source

Chain of human glucagon receptor (human) (P47871 26-477): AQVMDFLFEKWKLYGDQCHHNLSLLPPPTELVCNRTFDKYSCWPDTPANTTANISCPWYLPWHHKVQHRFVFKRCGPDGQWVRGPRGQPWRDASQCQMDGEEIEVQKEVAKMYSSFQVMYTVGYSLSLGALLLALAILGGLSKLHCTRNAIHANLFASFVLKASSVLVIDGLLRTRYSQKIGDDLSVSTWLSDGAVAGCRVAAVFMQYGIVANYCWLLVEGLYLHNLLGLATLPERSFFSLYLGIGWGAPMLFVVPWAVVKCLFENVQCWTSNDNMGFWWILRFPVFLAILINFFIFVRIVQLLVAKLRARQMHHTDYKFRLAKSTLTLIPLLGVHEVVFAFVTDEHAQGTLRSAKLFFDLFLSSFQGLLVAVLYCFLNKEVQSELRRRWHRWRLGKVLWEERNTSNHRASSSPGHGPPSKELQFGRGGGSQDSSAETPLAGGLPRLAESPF
Chain of human GLP-1 receptor (human) (P43220 24-463): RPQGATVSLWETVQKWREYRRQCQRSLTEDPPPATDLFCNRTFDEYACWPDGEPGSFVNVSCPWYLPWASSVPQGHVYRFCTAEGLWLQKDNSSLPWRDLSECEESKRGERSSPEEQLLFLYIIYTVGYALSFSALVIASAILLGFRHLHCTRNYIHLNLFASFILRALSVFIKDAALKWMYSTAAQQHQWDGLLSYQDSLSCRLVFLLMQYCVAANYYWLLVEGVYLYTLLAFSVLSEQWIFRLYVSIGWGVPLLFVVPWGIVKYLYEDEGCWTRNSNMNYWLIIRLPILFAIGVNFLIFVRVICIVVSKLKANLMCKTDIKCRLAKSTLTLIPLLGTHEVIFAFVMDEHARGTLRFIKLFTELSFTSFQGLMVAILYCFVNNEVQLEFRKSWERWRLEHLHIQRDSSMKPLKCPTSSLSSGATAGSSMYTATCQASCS

Molecule | EC50 (nM), cAMP in CHO/GCGR [1] | EC50 (nM), cAMP in CHO/GLP-1R [2] | EC50 (nM), cAMP in CHO/GCGR [3]
GLP-1 (from UniProt P01275 92-128) (ligand) | > 1000 nM |  | 
[Acetyl(2-(4-imidazolyl))]SQGTFTSDYSKYLDERRAQDFVAWLKNTGPSSGAPPPS [oxyntomodulin derivative (SEQ ID NO. 3)] |  | > 1000 nM | 638 nM
[Acetyl(2-(4-imidazolyl))]SQGTFTSDYSRYLDEEAVRLFIEWIRNGGPSSGAPPPSK [oxyntomodulin derivative (SEQ ID NO. 18)] |  | 96.3 nM | > 1000 nM
[Acetyl(2-(4-imidazolyl))]SQGTFTSDLSRQLEEEAVRLFIEWLMNK [oxyntomodulin derivative (SEQ ID NO. 8)] |  | 420 nM | > 1000 nM
